Molecular target: His6-human talin (human) (UniProt Q9Y490)
Experiment: pull-down

B1: His6-vinculin head (Vh), vinculin D1 domain (amino acid residues 1–258) (domain or fragment)
chain: MPVFHTRTIESILEPVAQQISHLVIMHEEGEVDGKAIPDLTAPVSAVQAAVSNLVRVGKETVQTTEDQILKRDMPPAFIKVENACTKLVRAAQMLQADPYSVPARDYLIDGSRGILSGTSDLLLTFDEAEVRKIIRVCKGILEYLTVAEVVETMEDLVTYTKNLGPGMTKMAKMIDERQQELTHQEHRVMLVNSMNTVKELLPVLISAMKIFVTTKNTKSQGIEEALKNRNFTVEKMSAEINEIIRVLQLTSWDEDAW
fold lower IC50 than that of the RIAM peptide: 100 fold

— article PMC3639047
